Results on one substance are retold here after patent US20260109763A1, “ANTI-PILRA ANTIBODIES, USES THEREOF, AND RELATED METHODS AND REAGENTS” (DENALI THERAPEUTICS INC., priority 2021, published 2026).

Assay [1] addresses human PILRA R78 on cells (human) (UniProt Q9UKJ1). Description: target engagement in brain lysate of human PILRA (R78) BACtg mice, 4 days after dosing; MSD assay, bound versus total PILRA.
The target is the same in assay [2]. Kind of assay: target engagement in brain lysate of human PILRA (R78) BACtg mice, 1 day after dosing; MSD assay, bound versus total PILRA.

Chain of human PILRA R78 on cells (human) (Q9UKJ1 20-303 limits assumed): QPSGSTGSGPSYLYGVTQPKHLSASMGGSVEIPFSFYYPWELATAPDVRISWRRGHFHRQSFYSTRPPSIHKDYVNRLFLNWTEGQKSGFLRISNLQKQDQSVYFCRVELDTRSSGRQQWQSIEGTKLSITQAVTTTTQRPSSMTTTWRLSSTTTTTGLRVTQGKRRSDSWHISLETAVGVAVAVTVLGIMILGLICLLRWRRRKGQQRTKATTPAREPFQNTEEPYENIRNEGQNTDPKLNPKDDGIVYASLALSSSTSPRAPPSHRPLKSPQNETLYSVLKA

Consider isotype control antibody, for which the percent of brain human PILRA bound, 4 days in assay [1] stood at 16%. In assay [2], this substance gave a percent of brain human PILRA bound, 1 day of 17%.
